According to article PMC5095173, “Disulfide-activated protein kinase G Iα regulates cardiac diastolic relaxation and fine-tunes the Frank–Starling response” (Nature Communications, 2016):

How the values were obtained:
[1] = test system: PKGIα (analogue-sensitive C42S/M438G), cGMP-activated; assay: Chemical genetic phosphoproteomic screen, cGMP-activated PKGIα C42S/M438G versus unactivated control; assay type: biochemical, human PKGIα; substrates in rat heart homogenate; conditions: PKGIα C42S/M438G + 100 μM cGMP vs basal; 1 h, 30 °C, pH 7.5, rat heart homogenate; label-free LC–MS/MS; n=4; * P<0.05 Dunnett: all values except phospholamban S16
Excerpt: (§1) We employed a chemical genetic method[18] to identify direct substrates of cGMP-activated PKGIα and disulfide bond-activated PKGIα in heart tissue. This method involves mutation of the ATP binding-site of the kinase of interest so that it can accept a ‘bulky' N6-alkylated ATP analogue for example, N6^−phenylethyl ATP. An oxygen atom on the γ phosphate is also replaced with a sulfur atom—giving an N6-alkylated ATPγS analogue—so that the mutant kinase catalyses the transfer of a thiophosphate group (–PO3S^3−) to its substrates instead of a phosphate. The thiophosphate group is nucleophilic, providing a basis for substrates of the analogue-sensitive kinase to be purified by a ‘covalent capture' protocol. LC–MS/MS allows identification of the substrate and localization of the phosphorylation site. Thiophosphorylated proteins can also be detected with a thiophosphate ester-specific antibody. Analogue-sensitive mutants of PKGIα and PKGIα C42S (which cannot form the activating intermolecular disulfide bond) were generated by mutating Met438 in the ATP-binding domain to Gly. This mutation was chosen based on a previous study where an analogue-sensitive mutant of the catalytic subunit of PKA—which shares sequence homology with PKGIα—was engineered. Detailed protocols are given below.
(§2) A pCDNA3 expression vector encoding human FLAG-tagged PKGIα (ref. [41]) underwent site-directed mutagenesis to generate constructs for untagged WT, C42S, M438G and C42S/M438G PKGIα. Mutations were introduced using the QuikChange II Site-Directed Mutagenesis Kit (Agilent) according to the manufacturer's instructions. Expression and purification of the PKGIα mutants was performed according to a published method[42] as follows: suspension FreeStyle 293-F cells (ThermoFisher Scientific) were transfected with the appropriate PKGIα construct using the stable cationic polymer polyethyleneimine (PEI) as a transfection reagent. After ∼72 h cells were harvested by centrifugation (400g; room temperature; 15 min), re-suspended in ice cold lysis buffer (25 mM sodium phosphate buffer pH 6.8; 10 mM ethylenediaminetetraacetic acid (EDTA); 100 mM NaCl; 10 mM benzamidine hydrochloride; and 10 mM dithiothreitol (DTT)) and frozen in liquid N2. Cells were lysed by three freeze (liquid N2)-thaw (37 °C) cycles and the lysate was clarified by centrifugation at 140,000g and 4 °C for 30 min. The soluble protein fraction was loaded onto a pre-equilibrated 8-(2-aminoethylamino)adenosine-3′, 5′-cyclic monophosphate column (8-AEA-cAMP agarose; BioLog, Germany) followed by washing with 20 column volumes of lysis buffer. The column was further washed with lysis buffer +3 M NaCl (5 column volumes) and PKGIα was then eluted with lysis buffer +150 mM NaCl and 500 μM cAMP. Removal of cAMP and buffer exchange was achieved by extensive dialysis against 25 mM sodium phosphate buffer pH 6.8, 2 mM EDTA and 100 mM NaCl. For ITC analysis, WT PKGIα was incubated with 10 mM lipoic acid for 2 h on ice to obtain ∼100% disulfide dimer (confirmed by SDS-PAGE). Oxidized WT or C42S PKGIα was further purified by size exclusion chromatography using a HiLoad 16/600 Superdex 200 pg column (GE Healthcare) with 50 mM sodium phosphate buffer pH 7.4 and 100 mM NaCl. Proteins were concentrated using Amicon Ultra centrifugal filter devices (Merck Millipore). DTT was absent in storage buffers so that the activating disulfide bond would not be reduced and so that the PKGIα M438G mutant would be oxidized to disulfide dimer in the presence of air (confirmed by SDS-PAGE). Protein concentration was determined by Pierce BCA assay (ThermoFisher) and enzyme activity was confirmed using the Omnia kinase assay kit (ThermoFisher).
(§3) Male Wistar rats (9–10 weeks; body weight 300–330 g) were euthanized by intraperitoneal injection of sodium pentobarbitone (200 mg kg^−1) with heparin (500 USP units). […]

[2] = test system: PKGIα (analogue-sensitive M438G), disulfide-activated; assay: Chemical genetic phosphoproteomic screen, disulfide-activated PKGIα M438G versus unactivated control; assay type: biochemical, human PKGIα; substrates in rat heart homogenate; conditions: disulfide-activated PKGIα M438G vs basal; 1 h, 30 °C, pH 7.5, rat heart homogenate; label-free LC–MS/MS; n=4; * P<0.05 Dunnett: only phospholamban S16
Excerpt: as §1, §2, §3

B1: Leucine-rich PPR motif-containing protein, mitochondrial: PKGIα substrate, phospho site S656 (protein, UniProt Q5SGE0 78-1392, looked up)
Leucine-rich PPR …: SGSQFDWALMRLDNSVRRTGRITKGLLQKVFESTCRSGSPGSNQALLLLRSCGSLLPELSLAERTEFAHKIWDKLQQLGTVYDVSHYNALLKVYLQNEYRFSPTDFLAKMEGANIQPNRVTYQRLIAAYCSVGDIEGASKILGFMKTRDLPITEAVFSALVTGHARAGDMESAENILTVMKQAGIEPGPDTYLALLNAHAEKGDIDHVKQILEKVEKSDHYFMDRDFLQIIVSFSKAGYPQYVSEILEKITYERRSIPDAMNLILLLVTEKLEDTAFQVLLALPLARDETSSSFGSFFLRHCVTMDTPAEKLIDYCKRLRDAKVHSSSLQFTLHCALQANKTALAKAVMEALRDEGFPIRTHYFWPLLVGHQKTKNVQGIIDILKIMKEMGVDPDQETYINYVFPCFGSVQSARAALQENKCLPKSTTFAQAEVRNEAINGNLQNILSFLESNALPFSFNSLRGSLILGFRRSMNIDLWSKITELLYKDDRYCQKPPGPTEAVGYFLYNLIDSMSDSEVQAKEERLRQYFHQLREMNVKVSENIYKGICNLLDNYHVPELIKDVKVLVDREKIDSRKTSQFTSSDLESTLEKLKAEGHPVGDPLKQLILLLCSEENMQKALEVKAKYESDMVIGGYAALINLCCRHDNAEDALNLKQEFDRLDPSAVLDTAKYVALVKVLGKHGRVQDAINILKEMKEKDVVIKDAAVLSFFHILNGAALRGEIETVKQLHEAIVTLGLAKPSSNISFPLVTVHLEKDDLPAALEASIACHEKYKVLPRIHDVLCKLIEKGETDLIQKAMDFVSQEQGEMSMLYDLFFAFLQTGNYKEAKKIIETPGIRARPTRLQWFCDRCIANNQVETLEKLVELTEKLFECDRDQMYYNLLKLYKISGDWQRADAVWNKMQEENLIPRERTLRLLAGILKTSNQEVPFDVPELWFGDDRSSLSSSSPSAGDTVTEKMLLSDCRLKKSKDAYNIFLKAEKQDVVFSSEAYSTLVGLLLSKDDFTRAMHVKDFAETHIKGFTLNGAASSLLIIAQVRRDYLKVALETLKAALDLEQVPSELAVTRLIQALALQGDVKSIETIQKMVKGLDAIELSRMVFINNIALAQMKNNEIDAAIENIEHMLASENQTVEHQYFGLSYLFRKVIEEQMEPALEKLSIMSERLANQFALYKPVTDLFLQLVDSGKVDEARALLERCGAIAEQTSILSVFCLRTSQKPKKAPVLKTLLELIPELRENDRVYSCSMKSYVADKDVASAKALYEHLTAKNMKLDDLFLKRYASLLKDVGEPVPFTEPPESFGFYIKQLKEARENPS
modifications: phosphorylated at S656
Log2 fold change in phosphorylation, cGMP versus control [1]: 4.57* | Log2 fold change in phosphorylation, Disulfide versus control [2]: 0.77

B2: Histone H1.5: PKGIα substrate, phospho site T35 (protein, UniProt D3ZBN0 2-222, looked up)
Histone H1.5: SETAPAETTAPAPVEKSPAKKKTKKAGAAKRKATGPPVSELITKAVSASKERGGVSLPALKKALAAGGYDVEKNNSRIKLGLKSLVSKGTLVQTKGTGASGSFKLNKKVASGEAKPKAKKTGAAKAKKPTGATPKKPKKTAGAKKTVKKTPKKAKKPAAAGVKKVTKSPKKAKAAAKPKKATKSPARPKAVKSKASKPKVTKPKAAKPKAAKVKKAVSKKK
modifications: phosphorylated at T35
Log2 fold change in phosphorylation, cGMP versus control [1]: 3.90* | Log2 fold change in phosphorylation, Disulfide versus control [2]: 1.43

B3: Matrin-3: PKGIα substrate, phospho site T150 (protein, UniProt P43244 2-845, looked up)
Matrin-3: SKSFQQSSLGRDSQGHGRDLSAAGIGLLAAATQSLSMPASLGRMNQGTARLASLMNLGMSSSLNQQGAHSALSSASTSSHNLQSIFNIGSRGPLPLSSQHRGDTDQASNILASFGLSARDLDELSRYPEDKITPENLPQILLQLKRRRTEEGPTLSYGRDGRSATREPPYRVPRDDWEEKRHFRRDSFDDRGPSLNPVLDYDHGSRSQESGYYDRMDYEDDRLRDGERCRDDSFFGETSHNYHKFDSEYERMGRGPGPLQERSLFEKKRGAPPSSNIEDFHGLLPKGYPHLCSICDLPVHSNKEWSQHINGASHSRRCQLLLEIYPEWNPDNDTGHTMGDPFMLQQSTNPAPGILGPPPPSFHLGGPAVGPRGNLGAGNGNLQGPRHMQKGRVETSRVVHIMDFQRGKNLRYQLLQLVEPFGVISNHLILNKINEAFIEMATTEDAQAAVDYYTTTPALVFGKPVRVHLSQKYKRIKKPEGKPDEKFDQKQELGRVIHLSNLPHSGYSDSAVLKLAEPYGKIKNYILMRMKSQAFIEMETREDAMAMVDHCLKKALWFQGRCVKVDLSEKYKKLVLRIPNRGIDLLKKDKSRKRSYSPDGKESPSDKKSKTDGAQKTENPAEGKEQEEKSGEDGEKDTKDDQTEQEPSMLLESEDELLVDEEEAAALIESGSSVGDETDLANLGDVSSDGKKEPSDKAVKKDASATSKKKLKKVDKIEELDQENEAALENGIKNEENTEPGAESAENADDPNKDASDNSDGQNDENKEDYTIPDEYRIGPYQPNVPGGIDYVIPKTGFYCKLCSLFYTNEEVAKNTHCSSLPHYQKLKKFLNKLAEERRQKKES
modifications: phosphorylated at T150
Log2 fold change in phosphorylation, cGMP versus control [1]: 3.58* | Log2 fold change in phosphorylation, Disulfide versus control [2]: 1.38

B4: Microtubule-associated protein 4: PKGIα substrate, phospho site T899 (protein, UniProt Q5M7W5 2-1057, looked up)
Microtubule-associated …: ADLSLVDALTEPPPEIEGEIKRDFMAALEAEPYDDIVGETVEKTEFIPLLDGDEKSGNSESKRKPCVDTSQVEDIPSSKPTLLANGDHGVEGNNTTGSPTDFLVENVDYEDYQNSQSWPEDASFCFQPQQVLDTNQADPFNVHHDDGLADLLFVSSGPTNASAFIEENNPLEDSYGVLPCDSFAPTAVVSQEWSVGAPDSPHSEPCVSPEVTIETAQPATELSKAVDLESVKEQLPAKALEMMAGQTTDAVPSKESEGSPDTDAAPGPDTDVTLTKDIEESSSPDVISANVTQPFTESDMFLTQEMELLIGTEAAQVKDTMSSVEPDISSAKNTAPPTEEETVPGKDMTFPKEAETALPIEMDLAPPEDVALPKETELELAPAAGTAPLSETEVALAKDEEPSTGIPAAQEMLLSSETEVVLPSDSIMTLTKEVTVPLEAAGPLVSDMTAILETEMTLGGGTATPTETKLGKVKDMAPLPESEVALGKDVVTLPETKVTEFNNVTPLSEEEVASIKDVSPSPETETAKNADLHSGTELTLDNSMTPPSDPALPLETKVATVQIKDKETVQTQEELSEDSQLESVQLEGQSAVPPCTISPEPVKAADQKSTLPVDEGSPLEKLEQKETSGSQPPELCSGVSRQEEGKAAVGLTGNDIATPPNKELPPSPEKKAKPLATTQPAKTSTSKAKIQPTSLPKQPAPTTSGGLNKKPMSLASGSVPAAPHKRPAAATATARPSTLPARDLKPKPITETKVAEKRTSPSKPSSAPALRPGPKTTPTISKATSPSTLVSTGSSSRSPSTTLPKRPTTTKTEGKPADVKRMTAKSATADLSRSKTTSASSVKRNTTPTGATPPAGMASTRVKPMSAPCRSSVALSVDKKPTSTKPSSSAPRVSRLATTVSAPDLKSVRSKVGSTENMKHQPGGGRVQIQNKKVDISKVSSKCGSKANIKHKPGGGDVKIESQKLNFKEKAQAKVGSLDNVGHLPAGGTVKTEGGGSEAPPCPGPPAGEEPAIPEAAPDAGAPTSASGLSGHTTLSGGGDQREPQTLDSQIQETSI
modifications: phosphorylated at T899
Log2 fold change in phosphorylation, cGMP versus control [1]: 3.69* | Log2 fold change in phosphorylation, Disulfide versus control [2]: 1.73
